The supplement of paper PMC12764529
± gives the half width of the 95% confidence interval.

Assays:
[1] = folding stability dG unfold (combined trypsin and chymotrypsin); higher = more stable
Method in brief: (§1)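 Designed mini-proteins (under 80 residues, no cysteine) in a PA-tagged cDNA display construct were digested with trypsin and chymotrypsin. Each protease was used at 11 concentrations (threefold dilutions) plus a no-protease condition, followed by sequencing. K50 was inferred by Bayesian fitting of sequencing counts, and unfolding free energy was derived against a sequence-predicted unfolded-state K50 and a shared folded-state K50, per protease or combined. Only designs with AlphaFold2 dimer inter-PAE above 15 were kept.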

[2] = folding stability dG unfold from chymotrypsin proteolysis; higher = more stable
Method in brief: as §1

[3] = folding stability dG unfold from trypsin proteolysis; higher = more stable
Method in brief: as §1

Sequence | folding stability dG unfold [1] [kcal/mol] | folding stability dG unfold [2] [kcal/mol] | folding stability dG unfold [3] [kcal/mol]
SAGGSAGGSMLPADTKVIKITVESTLPDGSTTTHTVTVPSSVPLEAVKEQLPPGATITEVVLASAGGSAGGS [r12_597_JUSTAS] | 1.16 ± 0.059 | 0.931 ± 0.011 | 1.44 ± 0.064
SAGGSAGGSMLPLPIESIEVVPRRAPGGKTYYVAFIRLKADGKPLVIEFEADNPGEALEKLEASAGGSAGGS [r20_238_TrMRF] | 1.34 ± 0.14 | 1.46 ± 0.11 | 1.14 ± 0.046
SAGGSAGGSMLTVKITLPNGEKIEIEIEAESEEEAKAAAEKLLEALREAGVSLEDVKVEVVEPSAGGSAGGS [r12_295_TrROS_Hall] | 3.66 ± 0.29 | 2.92 ± 0.11 | 4.46 ± 0.67
SAGGSAGGSMNVPPGESVTVTVPPGTGLEWLRAQLPSSRTWDFATFVSENPSPPVTTYEITVGSAGGSAGGS [r12_469_JUSTAS] | 1.76 ± 0.11 | 2 ± 0.077 | 1.16 ± 0.078
SAGGSAGGSMPKKTYEFEIEYEDPEEAVEKAIREFEEETGEKIEEVEVEYDPEKGIVKITLVKSAGGSAGGS [r12_265_JUSTAS] | 1.27 ± 0.21 | 1.44 ± 0.088 | 0.921 ± 0.066
SAGGSAGGSMPKTYSFKVKSKEEIVKLIEELKKLGAKKVEVKELPDGYELYVEVGDSVIKVYSSAGGSAGGS [r12_846_TrMRF] | 1.24 ± 0.13 | 1.1 ± 0.16 | 1.31 ± 0.065
SAGGSAGGSMPPVVLEVKDPESGKVTTLFFFPPTGEALVVPPDGSVFYEPFTSLDELVERLAGSAGGSAGGS [r12_511_TrMRF] | 1.57 ± 0.091 | 1.71 ± 0.051 | 1.4 ± 0.055
SAGGSAGGSMPVITVDPSIKEFKDEKGNKYLLTPVTVTLPNGVPVTVVYTTDPSTGKTTPATSGSAGGSAGG [r6_298_JUSTAS] | 0.62 ± 0.1 | 0.481 ± 0.12 | 0.671 ± 0.059
SAGGSAGGSMPVLVSESPVGTLPDGTKVTRVTYRFPNGEILTETVVEPGPGPPTPENVALTLASAGGSAGGS [r12_775_JUSTAS] | 1.6 ± 0.29 | 1.19 ± 0.23 | 2.04 ± 0.18
SAGGSAGGSMRFPPGQKIEIEEWKHNPNGGNYQVSIRFKDGKKKTFTSPEDIDRLIKAGHVKISAGGSAGGS [r12_455_TrROS] | 0.822 ± 0.21 | 1.33 ± 0.19 | -0.0362 ± 0.26
SAGGSAGGSMRIKFEFKIGDKWVEEEIPADLSQLPLSEIKKKHPKAEYKIEIEDEEGNWTPLLSAGGSAGGS [r12_540_JUSTAS] | 0.767 ± 0.12 | 1.04 ± 0.1 | 0.262 ± 0.11
SAGGSAGGSMRLDLDDIKRVEREPTPNGMRVYEIKLKGHKLPIRYHDNKIEISPEFKDLLKDISAGGSAGGS [r20_92_TrROS] | -0.253 ± 0.15 | -0.483 ± 0.23 | -0.382 ± 0.19
SAGGSAGGSMSEELLAEGPVRIRVRVRNKDGSVEEIEVEAGEEIELPEELKNQDVEIVSIEPVSAGGSAGGS [r12_161_TrROS_Hall] | 1.74 ± 0.089 | 2.15 ± 0.088 | 0.838 ± 0.058
SAGGSAGGSMSPEEAKKLAEELAKKLGLEKVEIVEIKVEVDEETNEIKVTIYIRGKDGKWYKLSAGGSAGGS [r12_508_TrROS_Hall] | 3.96 ± 0.074 | 4.2 ± 0.07 | 3.48 ± 0.18
SAGGSAGGSMSPEEARALAEALAEALGEPDVEVLEVVQTENPAADSTTVTVTIRLPDGSVRVLSAGGSAGGS [r12_508_JUSTAS] | 1.63 ± 0.06 | 1.481 ± 0.014 | 1.63 ± 0.079
SAGGSAGGSMSPSESVTLTVVVEEITPGTPKVLLPEEVKEKYPNFEVQVKVEGKPATVTITRPSAGGSAGGS [r12_900_JUSTAS] | 0.385 ± 0.077 | 0.444 ± 0.017 | 0.321 ± 0.021
SAGGSAGGSMTFSSEEEAEAFIAQLPPDSEVEVEIKDPNTDKTTKYKIKVPPEQPVYSPKGVLSAGGSAGGS [r12_393_JUSTAS] | 1.2 ± 0.14 | 1.5 ± 0.063 | 0.308 ± 0.11
SAGGSAGGSMTILEEEVVPETGLVRILVKLPNGELLELEVDPSVGVTPVKVDGKPIFDVTVDPSAGGSAGGS [r12_789_JUSTAS] | 1.19 ± 0.11 | 1.3 ± 0.082 | 0.898 ± 0.038
